Like-named read-outs stand apart in the source and are kept apart here.
Experiments:
[1] = molecular target: T1, recombinant human CD33 protein (Sino Biologicals) (human, UniProt P20138 18-259); assay: BLI (ForteBio), antibody on anti-human Fc sensor, CD33 10 nM
T1 construct: Bought protein; also called recombinant CD33
Protocol: (§1) Affinity parameters of the antibody variants for human CD33 were measured by BioLayer Interferometry in a ForteBio assay according to standard techniques (Estep et al. (2013) MAbs 5(2): 270-8) and were compared to those of the parental antibody (antibody 6C7H8) and the parental humanized antibody (antibody 6C71H5). Briefly, the antibodies were captured on anti-human Fc Biosensors (Pall ForteBio). Recombinant human CD33 (10 nM, Sino Biologicals) was then bound to the captured anti-CD33 surface (200 s association time, 1200 s dissociation time). Local fitting was used to extract association and dissociation rate constants (kₐ and kd, respectively) for each antibody. Apparent affinity constants (KD) were calculated from the ratio kd/kₐ.

[2] = molecular target: T2, human CD33 on primary human dendritic cells (human, UniProt P20138 18-364); assay: cell-based or functional assay
[3] = molecular target: T2, human CD33 on primary human dendritic …; assay: cell-based or functional assay; remark: listed apart in the source
[4] = molecular target: T2, human CD33 on primary human dendritic …; assay: cell-based or functional assay; remark: listed apart in the source
[5] = molecular target: T3, recombinant cynomolgus CD33 protein (NovoProtein) (cynomolgus); assay: ELISA, plate coated with recombinant CD33
T3 construct: Bought protein; also called cyno CD33

[6] = molecular target: T1, recombinant human CD33 protein (Sino …); assay: ELISA, plate coated with recombinant CD33
[7] = molecular target: T2, human CD33 on primary human dendritic …; assay: flow cytometry on primary human dendritic cells, antibody at 2 ug/mL, fluorescent anti-human IgG secondary
Protocol: The 7 humanized anti-CD33 antibodies of 6C7 were evaluated for binding to primary dendritic cells by flow cytometry, and binding was compared to that of an anti-CD33 6C7 chimeric antibody that contained the variable heavy chain sequence and the variable light chain sequence of anti-CD33 antibody 6C7. Monocytes were isolated from blood from healthy human donors using the RosetteSep™ monocyte isolation antibody cocktail (StemCell Technologies). The isolated monocytes were differentiated into dendritic cells with 100 ng/mL GM-CSF and 100 ng/mL IL-4 (Peprotech). Dendritic cells were incubated with dilutions of the anti-CD33 antibodies for 30 minutes on ice in the dark, followed by a 30-minute incubation with a fluorescently-conjugated anti-human IgG secondary antibody. Cells were washed twice in FACS buffer (PBS+2% FBS, 2 mM EDTA), and flow cytometry was performed on a BD FACS Canto. Data were analyzed using FlowJo software (Ashland, OR).
The antibody variants were evaluated for binding to primary human dendritic cells, according to the method described in Example 1, at an antibody concentration of 2 μg/mL.

[8] = molecular target: T1, recombinant human CD33 protein (Sino …); assay: ELISA on recombinant CD33, relative binding, antibody concentration not given
[9] = molecular target: T2, human CD33 on primary human dendritic …; assay: cell-based or functional assay; remark: listed apart in the source
[10] = molecular target: T2, human CD33 on primary human dendritic …; assay: flow cytometry, primary human dendritic cells, 2 ug/mL
[11] = molecular target: T3, recombinant cynomolgus CD33 protein …; assay: BLI (ForteBio)
Protocol: as §1
(§2) The affinity parameters of anti-CD33 antibody 6C7H54 for human CD33 and cynomolgus CD33 were measured by BioLayer Interferometry in a ForteBio assay, according to the method described above.

[12] = molecular target: T3, recombinant cynomolgus CD33 protein …; assay: BLI (ForteBio), antibody on anti-human Fc sensor
Protocol: as §1, §2

[13] = molecular target: T1, recombinant human CD33 protein (Sino …); assay: BLI (ForteBio), antibody on anti-human Fc sensor
Protocol: as §1, §2

T1 sequence (P20138 18-259 limits assumed): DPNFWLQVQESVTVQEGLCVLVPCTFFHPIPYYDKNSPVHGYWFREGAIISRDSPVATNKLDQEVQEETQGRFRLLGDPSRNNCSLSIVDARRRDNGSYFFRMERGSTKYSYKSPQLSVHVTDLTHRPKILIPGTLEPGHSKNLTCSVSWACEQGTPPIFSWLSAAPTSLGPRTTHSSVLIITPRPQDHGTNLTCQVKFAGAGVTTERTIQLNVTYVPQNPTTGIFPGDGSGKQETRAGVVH
T3 sequence (chain, as listed by the source limits assumed): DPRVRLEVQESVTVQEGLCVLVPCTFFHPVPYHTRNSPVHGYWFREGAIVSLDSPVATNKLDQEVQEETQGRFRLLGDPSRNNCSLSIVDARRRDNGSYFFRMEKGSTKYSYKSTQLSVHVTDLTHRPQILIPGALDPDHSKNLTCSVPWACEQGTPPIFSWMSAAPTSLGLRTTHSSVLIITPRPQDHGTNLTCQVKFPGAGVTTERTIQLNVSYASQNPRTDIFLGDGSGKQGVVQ
T2 sequence (P20138 18-364): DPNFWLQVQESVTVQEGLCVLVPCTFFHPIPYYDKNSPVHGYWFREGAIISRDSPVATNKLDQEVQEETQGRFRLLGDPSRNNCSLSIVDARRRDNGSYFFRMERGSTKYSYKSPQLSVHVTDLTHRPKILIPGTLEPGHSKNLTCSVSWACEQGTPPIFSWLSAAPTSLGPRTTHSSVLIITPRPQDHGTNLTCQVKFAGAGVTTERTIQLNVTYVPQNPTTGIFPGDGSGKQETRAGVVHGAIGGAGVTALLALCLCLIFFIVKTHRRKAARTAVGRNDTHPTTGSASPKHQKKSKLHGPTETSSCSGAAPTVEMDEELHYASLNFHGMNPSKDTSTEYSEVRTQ

B1: anti-CD33 antibody 6C7H5 (antibody, V domains shown)
VH: EVQLVESGGGLVQPGGSLRLSCAGSGFTFSNYCMNWVRQAPGKGLEWVAEIRLKSNNYVTNYAASVKGRFTISRDDSKNSVYLQMNSLKTEDTGVYYCTRDGYYVPFAYWGQGTLVTVSS
VL: QLVLTQSPSASASLGASVKLTCTLSSQHSTYTIEWYQQQPEKGPRYLMELKKDGSHSTGDGIPDRFSGSSSGAERYLTISSLQSEDEADYYCGVGDTIKEQFVYVFGGGTKLTVL
notes: Humanized 6C7; VH/VL only; also called parental humanized antibody
Kd [1]: 0.436 nM
koff [1]: 0.00012 s⁻¹
kon [1]: 275000 M⁻¹ s⁻¹
Receptor downregulation, (EC50) (pM) [2]: 42.4 pM
Receptor downregulation, (EC50) (pM) [3]: 42.4 pM
Maximal reduction in CD33 (% remaining) [4]: 21 % remaining
Receptor downregulation, (EC50) (pM) [4]: 42.4 pM
EC50 [5]: 3.84 nM
Relative maximal binding (cyno/human) [5]: 0.5
Relative potency (human/cyno) [5]: 0.04
EC50 [6]: 0.16 nM

B2: anti-CD33 antibody 6C7H11 (antibody, V domains shown)
VH: EVQLVESGGGLVQPGGSLRLSCAASGFTFSEYAMNWVRQAPGKGLEWVGEIRLKSNNYVTNYAASVKGRFTISRDDSKNSVYLQMNSLKTEDTGVYYCTRAGYYVPFAYWGQGTLVTVSS
VL: QLVLTQSPSASASLGASVKLTCTLSSQHSTYTIEWYQQQPEKGPRYLMELKKGGSHSTGDGIPDRFSGSSSGAERYLTISSLQSEDEADYYCGVGDTIKEQFVYVFGGGTKLTVL
notes: VH/VL only
binding result [7]: binds
binding result [8]: binds

B3: anti-CD33 antibody 6C7H8 (antibody, IgG1, V domains shown)
VH: EVQLVESGGGLVQPGGSLRLSCAGSGFTFSNYCMNWVRQAPGKGLEWVAEIRLKSNNYVTNYAASVKGRFTISRDDSKNSVYLQMNSLKTEDTGVYYCTRAGYYVPFAYWGQGTLVTVSS
VL: QLVLTQSPSASASLGASVKLTCTLSSQHSTYTIEWYQQQPEKGPRYLMELKKEGSHSTGDGIPDRFSGSSSGAERYLTISSLQSEDEADYYCGVGDTIKEQFVYVFGGGTKLTVL
notes: VH/VL only; also called 6C7H8 IgG1; parental antibody
Maximal downregulation (% CD33 remaining) [9]: 21.5 % CD33 remaining
Receptor downregulation, (pM, EC50) [9]: 77.9 pM
Kd [1]: 0.722 nM
koff [1]: 0.000413 s⁻¹
kon [1]: 572000 M⁻¹ s⁻¹
Receptor downregulation, (EC50) (pM) [3]: 77.9 pM
Fold increase in potency compared to 6C7H5 [4]: 0.5 fold
Maximal reduction in CD33 (% remaining) [4]: 21.5 % remaining
Receptor downregulation, (EC50) (pM) [4]: 77.9 pM
Relative maximal binding (cyno/human) [5]: 0.06
EC50 [6]: 0.21 nM

B4: anti-CD33 antibody 6C7H27 (antibody, V domains shown)
VH: EVQLVESGGGLVQPGGSLRLSCAGSGFTFSDYTMNWVRQAPGKGLEWVAEIRLKSNNYVTNYAASVKGRFTISRDDSKNSVYLQMNSLKTEDTGVYYCTRAGYYVPFAYWGQGTLVTVSS
VL: QLVLTQSPSASASLGASVKLTCTLSSQHSTYTIEWYQQQPEKGPRYLMELKKEGSHSTGDGIPDRFSGSSSGAERYLTISSLQSEDEADYYCGVGDTIKEQFVYVFGGGTKLTVL
notes: VH/VL only
binding relative to the parental antibodies [10]: < 60%
Kd [1]: 2.73 nM
koff [1]: 0.00365 s⁻¹
kon [1]: 1.34e+06 M⁻¹ s⁻¹
Fold increase in potency compared to 6C7H5 [4]: 0.03 fold
Receptor downregulation, (EC50) (pM) [4]: 1520 pM

B5: anti-CD33 antibody 6C7H54 (antibody, IgG1, V domains shown)
VH: EVQLVESGGGLVQPGGSLRLSCAGSGFTFSNYEMNWVRQAPGKGLEWVAEIRLKSNNYVTNYAASVKGRFTISRDDSKNSVYLQMNSLKTEDTGVYYCTRAGYYVPFAYWGQGTLVTVSS
VL: QLMLTQSPSASASLGASVKLTCTLSSQHSTYTIEWYQQQPGKGPRYLMELKKEGSHSTGDGIPDRFSGSSSGAERYLTISSLQSEDEADYYCGVGHTIKEQFVYVFGGGTKLTVL
notes: VH/VL only; also called 6C7H54 IgG1; 6C754
fold difference of binding affinity, cynomolgus CD33 against human CD33 [11]: ≤ 3 fold
Maximal downregulation (% CD33 remaining) [9]: 26.1 % CD33 remaining
Receptor downregulation, (pM, EC50) [9]: 30.2 pM
Fold increase in potency compared to 6C7H5 [2]: 1.2 fold
Receptor downregulation, (EC50) (pM) [2]: 30.2 pM
Kd [12]: 0.178 nM
koff [12]: 0.000105 s⁻¹
kon [12]: 589000 M⁻¹ s⁻¹
Kd [13]: 0.061 nM
koff [13]: 3.32e-05 s⁻¹
kon [13]: 545000 M⁻¹ s⁻¹
EC50 [5]: 0.57 nM
Relative maximal binding (cyno/human) [5]: 0.73
Relative potency (human/cyno) [5]: 0.49
EC50 [6]: 0.28 nM
